# Results reported in patent US20160237160A1 (Bayer, published 2016).
# T1: Apo-3 (TNFRSF25) Fc fusion protein (Human, UniProt Q93038 25-199)
# T1 construct: extracellular domain; bought
# T1 sequence (looked up): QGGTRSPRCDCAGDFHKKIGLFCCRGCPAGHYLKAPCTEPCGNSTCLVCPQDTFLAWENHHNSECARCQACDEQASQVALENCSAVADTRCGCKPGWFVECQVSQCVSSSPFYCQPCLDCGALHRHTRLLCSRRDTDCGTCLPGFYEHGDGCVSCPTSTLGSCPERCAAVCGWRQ
# T2: CD-385 (TNFRSF21) Fc fusion protein (Human, UniProt O75509 42-349)
# T2 construct: extracellular domain; bought
# T2 sequence (looked up): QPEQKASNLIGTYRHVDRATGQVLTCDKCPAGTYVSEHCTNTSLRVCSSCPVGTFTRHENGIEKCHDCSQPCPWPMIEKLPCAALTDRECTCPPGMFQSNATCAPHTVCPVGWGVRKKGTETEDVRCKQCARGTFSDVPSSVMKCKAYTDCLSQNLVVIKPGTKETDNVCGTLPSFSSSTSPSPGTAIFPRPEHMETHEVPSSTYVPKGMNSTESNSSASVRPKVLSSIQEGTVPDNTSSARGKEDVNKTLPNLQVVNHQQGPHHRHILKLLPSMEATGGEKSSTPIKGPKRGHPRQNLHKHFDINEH
# T3: TNF-R1 (TNFRSF1A) Fc fusion protein (Human, UniProt P19438 30-211)
# T3 construct: extracellular domain; bought
# T3 sequence (looked up): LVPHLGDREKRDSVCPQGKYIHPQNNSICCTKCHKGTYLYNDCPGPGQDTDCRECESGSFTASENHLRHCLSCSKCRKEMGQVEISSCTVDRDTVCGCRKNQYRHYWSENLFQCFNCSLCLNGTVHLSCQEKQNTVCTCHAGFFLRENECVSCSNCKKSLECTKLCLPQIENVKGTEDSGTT
# T4: CD30 (TNFRSF8) Fc fusion protein (Human, UniProt P28908 19-385)
# T4 construct: extracellular domain; bought
# T4 sequence (looked up): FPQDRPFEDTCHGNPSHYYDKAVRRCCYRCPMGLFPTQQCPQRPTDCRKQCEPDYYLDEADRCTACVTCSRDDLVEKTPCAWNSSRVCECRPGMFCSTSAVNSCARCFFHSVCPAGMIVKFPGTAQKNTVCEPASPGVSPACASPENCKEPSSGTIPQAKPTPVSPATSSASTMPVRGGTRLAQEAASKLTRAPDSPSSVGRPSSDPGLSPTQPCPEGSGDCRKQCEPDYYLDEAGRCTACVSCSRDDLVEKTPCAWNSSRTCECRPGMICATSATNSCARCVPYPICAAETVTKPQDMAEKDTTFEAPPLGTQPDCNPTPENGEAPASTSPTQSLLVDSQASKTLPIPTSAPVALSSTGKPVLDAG
# T5: NGF R (TNFRSF16) Fc fusion protein (Human, UniProt P08138 29-250)
# T5 construct: extracellular domain; bought
# T5 sequence (looked up): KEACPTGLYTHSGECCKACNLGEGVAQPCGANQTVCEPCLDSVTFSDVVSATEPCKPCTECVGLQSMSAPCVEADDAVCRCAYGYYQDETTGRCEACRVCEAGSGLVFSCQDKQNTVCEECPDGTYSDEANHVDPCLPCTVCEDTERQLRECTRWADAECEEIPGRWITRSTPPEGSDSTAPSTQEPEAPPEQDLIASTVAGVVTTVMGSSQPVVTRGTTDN
# T6: Trail R 4 (TNFRSF10D) Fc fusion protein (Human, UniProt Q9UBN6 56-211)
# T6 construct: extracellular domain; bought
# T6 sequence (looked up): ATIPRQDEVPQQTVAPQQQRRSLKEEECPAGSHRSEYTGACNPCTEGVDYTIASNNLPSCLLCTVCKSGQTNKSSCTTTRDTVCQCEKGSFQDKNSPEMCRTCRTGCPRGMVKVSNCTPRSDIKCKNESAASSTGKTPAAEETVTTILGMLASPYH
# Key:
# [1] = molecular target: T7, TPP-599 (HUMAN-TNFRSF12Aaa28-80-hIgG1-Fc) (human); experiment: ELISA, TWEAKR-Fc coated 62 ng/ml, biotin-IgG titrated; + means IC50 1 to 150 pM;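 also: biotinylated IgG binding to immobilized TWEAKR-Fc muteins, detected with Streptavidin-HRP and Amplex Red, IC50 derived from fitted dose-response curves of twofold serial dilutions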
# T7 construct: dimeric; also called human TWEAKR Fc; TWEAKR-Fc
# Protocol: To collect dose-response data, the different TWEAKR-Fc muteins were coated with a low concentration (62 ng/ml) in a 384-well Maxisorb ELISA plate and a serial 2fold dilution of biotinylated IgG starting with a concentration of 100 nM was used as soluble binding partner. Detection was done with Streptavidin-HRP and Amplex Red.
# The dose-response data were fitted and IC50s determined.
# [2] = molecular target: T7, TPP-599 …; experiment: SPR, TWEAKR-Fc immobilized, IgG injected, bivalent analyte model (avidity mode);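 also: kd derived as the ratio of fitted dissociation to association rate constants, with sensorgrams corrected against a reference flow cell and a buffer blank before fitting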
# Protocol: (§1) Sensorgrams were generated after in-line reference cell correction followed by buffer sample subtraction. The dissociation equilibrium constant (KD) was calculated based on the ratio of association (kₒₙ₁) and dissociation rated (koff1) constants, obtained by fitting sensorgrams with a bivalent analyte model using Biavaluation Software (version 4.0).
# [3] = molecular target: T8, TPP-601 (MURINE-TNFRSF12Aaa28-80-hIgG1-Fc) (murine); experiment: as above
# T8 construct: dimeric; also called murine TWEAKR Fc
# Protocol: as §1
# [4] = molecular target: T9, TPP-1846 (MAC-TNFRSF12Aaa28-80-hIgG1-Fc) (macaca fascicularis); experiment: as above
# T9 construct: bivalent antigen; also called mac fasc TWEAKR Fc
# Protocol: as §1
# [5] = molecular target: T10, TPP-1779 (RAT-TNFRSF12Aaa28-80-hIgG1-Fc) (rat); experiment: as above
# T10 construct: bivalent antigen; also called rat TWEAKR Fc
# Protocol: as §1
# [6] = molecular target: T11, TPP-1778 (PIG-TNFRSF12Aaa28-80-hIgG1-Fc) (pig); experiment: as above
# T11 construct: bivalent antigen; also called pig TWEAKR Fc
# Protocol: as §1
# [7] = molecular target: T1, Apo-3 (TNFRSF25) Fc fusion protein; experiment: ELISA, Fc fusion protein coated at 1 µg/ml, TPP-2090 at 75 nM, Amplex Red;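 also: binding reported as ELISA signal intensity in Rfu against a panel of TNF receptor superfamily members presented as Fc fusion proteins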
# Description: (§2) Shown is the result of an ELISA: Y is “ELISA signal intensity [Rfu]”; X are “TNF receptor superfamily proteins tested (Fc-fusion proteins)”: 1 is “TWEAKR”; 2 is “TWEAKR”; 3 is “Apo-3”; 4 is “Trail-R1”; 5 is “Trail-R2”; 6 is “CD385”; 7 is “CD95”; 8 is “Rank”; 9 is “TNF-R1”; 10 is “TNF-R2”; 11 is “BAFF-R”; 12 is “DcR3”; 13 is “BCMA”; 14 is “TACI”; 15 is “OX40”; 16 is “CD30”; 17 is “CD27”; 18 is “CD40”; 19 is “Osteoprotegerin”; 20 is “EDAR”; 21 is “GITR”; 22 is “HVEM”; 23 is “NGF R”; 24 is “Trail R3”; 25 is “Lymphotioxin B R”; 26 is “Trail R4”; 27 is “EDA2R”; 28 is “TROY”; 29 is “RELT”; 30 is “4-1BB”.
# (§3) To collect dose-response data a serial 3fold dilution of biotinylated IgG starting with a concentration of 2 μM was used as soluble binding partner. Detection was done with anti-hIgG1-HRP and Amplex Red.
# [8] = molecular target: T2, CD-385 (TNFRSF21) Fc fusion protein; experiment: as above
# Description: as §2, §3
# [9] = molecular target: T3, TNF-R1 (TNFRSF1A) Fc fusion protein; experiment: as above
# Description: as §2, §3
# [10] = molecular target: T4, CD30 (TNFRSF8) Fc fusion protein; experiment: as above
# Description: as §2, §3
# [11] = molecular target: T12, CD40 (TNFRSF5) Fc fusion protein (Human, UniProt P25942 21-193); experiment: as above
# T12 construct: extracellular domain; bought
# T12 sequence (P25942 21-193): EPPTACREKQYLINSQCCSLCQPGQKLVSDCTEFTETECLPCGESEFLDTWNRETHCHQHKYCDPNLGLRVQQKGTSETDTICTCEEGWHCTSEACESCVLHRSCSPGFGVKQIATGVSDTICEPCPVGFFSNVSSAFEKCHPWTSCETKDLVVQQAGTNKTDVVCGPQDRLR
# Description: as §2, §3
# [12] = molecular target: T5, NGF R (TNFRSF16) Fc fusion protein; experiment: as above
# Description: as §2, §3
# [13] = molecular target: T6, Trail R 4 (TNFRSF10D) Fc fusion protein; experiment: as above
# Description: as §2, §3
binding result [1],Kd [2] [nM],Kd [3] [nM],Kd [4] [nM],Kd [5] [nM],Kd [6] [nM],binding result [7],binding result [8],binding result [9],binding result [10],binding result [11],binding result [12],binding result [13],Binder
binds,,,,,,,,,,,,,"P4A8(TPP-1324) (antibody, human IgG1, kappa, V domains shown, Human IgG1; variable domains from WO2009/140177 with constant region added) VH: QVQLVQSGAEVKKPGASVKVSCKGSGYTFTDYGMHWVRQAPGQGLEWMGVISTYNGYTNYNQKFKGRVTMTVDKSTSTAYMELRSLRSDDTAVYYCARAYYGNLYYAMDYWGQGTLVTVSS VL: DIVLTQSPASLAVSLGQRATISCRASKSVSTSSYSYMHWYQQKPGQPPKLLIKYASNLESGVPARFSGSGSGTDFSLNIHPMEEDDTAMYFCQHSRELPFTFGGGTKLEIKR"
,15,4.1,21.2,4.3,9.9,no binding (tested: 75 nM),no binding (tested: 75 nM),no binding (tested: 75 nM),no binding (tested: 75 nM),no binding (tested: 75 nM),no binding (tested: 75 nM),no binding (tested: 75 nM),"TPP-2090 (antibody, human IgG1, kappa, V domains shown, Human IgG1) VH: EVQLLESGGGLVQPGGSLRLSCAASGFTFSPYPMIWVRQAPGKGLEWVSYISPSGGSTHYADSVKGRFTISRDNSKNTLYLQMNSLRAEDTAVYYCARGGDTYFDYFDYWGQGTLVTVSS VL: DIQMTQSPSSLSASVGDRVTITCRASQSISGYLNWYQQKPGKAPKLLIYQASSLQSGVPSRFSGSGSGTDFTLTISSLQPEDFATYYCQQSYTSPFITFGQGTKVEIKR"
